Our source for the KD values is publication PMC3819287.

Broadly, the KD is a measure of binding affinity in units of concentration. Low values mean higher affinity, high ones lower affinity.

The target of this test is J17 (pH-sensitive anti-PCSK9 mAb, variant of J16) engineered pH-sensitive variant of J16; substitutions not stated in this article (see ref 9). The test is described as follows: KinExA (kinetic exclusion assay), multi-curve global analysis. The settings on record: pH 7.4; room temperature (approximately 23 C); 154 mM NaCl; PBS pH 7.4 (1 mM KH2PO4, 5.6 mM Na2HPO4, 154 mM NaCl). For orientation: Kinetic exclusion samples the free partner from a solution-phase mixture.

“rhPCSK9 (recombinant human proprotein convertase subtilisin/kexin type 9)” gave a KD of 0.064 nM.
